The supplement of paper PMC10065799, “High-throughput profiling of sequence recognition by tyrosine kinases and SH2 domains using bacterial peptide display” (eLife, 2023)

Biological target: Hck (UniProt P08631)
Assay: phosphorylation enrichment, bacterial display (enrichment ratio); higher = better substrate or ligand; peptides without Tyr show the background
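Note: 11-residue human phosphosite peptides and single-mutation variants displayed on the E. coli surface, counted by deep sequencing, each peptide's frequency after selection divided by its frequency in the unselected input library; frequency after pTyr selection over input frequency; kinase dosed for 20-30% of maximal phosphorylation in three min.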

Chain of Hck (P08631 whole entry, looked up): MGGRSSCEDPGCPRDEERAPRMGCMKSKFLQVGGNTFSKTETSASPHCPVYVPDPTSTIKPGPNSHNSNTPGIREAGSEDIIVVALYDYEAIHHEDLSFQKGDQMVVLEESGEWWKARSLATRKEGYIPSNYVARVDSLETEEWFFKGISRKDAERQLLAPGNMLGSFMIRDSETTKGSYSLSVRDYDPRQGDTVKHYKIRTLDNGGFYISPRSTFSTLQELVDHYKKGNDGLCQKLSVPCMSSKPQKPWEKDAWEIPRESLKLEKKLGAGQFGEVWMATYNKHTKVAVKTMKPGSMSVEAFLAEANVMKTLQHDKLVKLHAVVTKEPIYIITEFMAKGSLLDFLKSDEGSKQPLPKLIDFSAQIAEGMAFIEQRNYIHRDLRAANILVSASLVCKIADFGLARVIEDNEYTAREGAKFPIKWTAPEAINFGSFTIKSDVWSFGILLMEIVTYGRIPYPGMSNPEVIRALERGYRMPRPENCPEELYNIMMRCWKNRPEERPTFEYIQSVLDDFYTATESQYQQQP

| Sequence | phosphorylation enrichment |
| --- | --- |
| RSAGKYDVYLI [MECP2_Y120] | 0.878 |
| AAALAYGLDKS [HSPA9_Y230] | 0.419 |
| SDQRRYSLIDP [CLIP2_Y972_R977P] | 0.466 |
| CHSDDYVHISI [TSC1_Y406_L411I] | 0.573 |
| LARNMYDKEFF [MET_Y1230_D1228N_YF] | 0.694 |
| SRFQFYFQQKG [CHKB_Y381] | 0.551 |
| AAVNGYAFGGG [ECHS1_Y137] | 0.344 |
| SEELHYYVQNH [UQCRC2_Y207_F208Y] | 0.732 |
| SVTCAYSPALN [TP53_Y126_T125A] | 0.608 |
| TLSGIYQYSIA [FOXL2_Y81_I84S] | 3.56 |
| CTTIHYNYKCN [TP53_Y234_M237K] | 0.484 |
| TDLAYYLVREG [ASL_Y376_K380E] | 0.955 |
| RGFRQDAFDGK [HLA-A_Y140_YF] | 0.396 |
| DSMQSYDLDYP [UNC13B_Y243] | 0.474 |
| GTYVIYVRFSG [FLNB_Y1687_G1691S] | 0.514 |
| VSTKVYKRFPS [BEST1_Y148_A146K] | 0.352 |
| KKHIPCREHKS [CSNK1G2_Y206_Y206C] | 0.876 |

| Sequence | phosphorylation enrichment |
| --- | --- |
| QKFMAYLSQGW [HLCS_Y236_G241W] | 0.501 |
| HSYNSYTYPRL [PAK5_Y316] | 0.485 |
| YGSSSYGGAGG [RPA2_Y14] | 0.39 |
| DEDFLYREELA [POR_Y575_YF] | 0.44 |
| SEKIVYGHLDD [ACO2_Y71] | 0.639 |
| MPVDGYISGLL [PAK6_Y81] | 0.441 |
| REGAKYVSHCA [ASS1_Y113_G117C] | 0.489 |
| CDKEFYSVHNK [MET_Y1235_Y1230C_YF] | 0.46 |
| IFHLSYHHNCE [PDE6B_Y227_L228H_YF] | 0.478 |
| LPQDGYRIVQH [PTPRT_Y1329_R1324L] | 0.418 |
| LYYYSYLLKNH [PTEN_Y180_V175L] | 1.49 |
| YPSLPYSPVSS [CAMKK2_Y128_C123Y] | 0.62 |
| YDRREYSRFEK [ITGB7_Y758] | 0.673 |
| CGSLLYGLVHQ [PRKCG_Y122] | 7.19 |
| VECQVYAEDPY [PCCA_Y401_R399Q] | 0.669 |
| HRNNNYEPNLF [BRCA2_Y57_K53R] | 0.465 |

Biological target: Jak2 (UniProt O60674)
Assay: as above

Chain of Jak2 (O60674 whole entry, looked up): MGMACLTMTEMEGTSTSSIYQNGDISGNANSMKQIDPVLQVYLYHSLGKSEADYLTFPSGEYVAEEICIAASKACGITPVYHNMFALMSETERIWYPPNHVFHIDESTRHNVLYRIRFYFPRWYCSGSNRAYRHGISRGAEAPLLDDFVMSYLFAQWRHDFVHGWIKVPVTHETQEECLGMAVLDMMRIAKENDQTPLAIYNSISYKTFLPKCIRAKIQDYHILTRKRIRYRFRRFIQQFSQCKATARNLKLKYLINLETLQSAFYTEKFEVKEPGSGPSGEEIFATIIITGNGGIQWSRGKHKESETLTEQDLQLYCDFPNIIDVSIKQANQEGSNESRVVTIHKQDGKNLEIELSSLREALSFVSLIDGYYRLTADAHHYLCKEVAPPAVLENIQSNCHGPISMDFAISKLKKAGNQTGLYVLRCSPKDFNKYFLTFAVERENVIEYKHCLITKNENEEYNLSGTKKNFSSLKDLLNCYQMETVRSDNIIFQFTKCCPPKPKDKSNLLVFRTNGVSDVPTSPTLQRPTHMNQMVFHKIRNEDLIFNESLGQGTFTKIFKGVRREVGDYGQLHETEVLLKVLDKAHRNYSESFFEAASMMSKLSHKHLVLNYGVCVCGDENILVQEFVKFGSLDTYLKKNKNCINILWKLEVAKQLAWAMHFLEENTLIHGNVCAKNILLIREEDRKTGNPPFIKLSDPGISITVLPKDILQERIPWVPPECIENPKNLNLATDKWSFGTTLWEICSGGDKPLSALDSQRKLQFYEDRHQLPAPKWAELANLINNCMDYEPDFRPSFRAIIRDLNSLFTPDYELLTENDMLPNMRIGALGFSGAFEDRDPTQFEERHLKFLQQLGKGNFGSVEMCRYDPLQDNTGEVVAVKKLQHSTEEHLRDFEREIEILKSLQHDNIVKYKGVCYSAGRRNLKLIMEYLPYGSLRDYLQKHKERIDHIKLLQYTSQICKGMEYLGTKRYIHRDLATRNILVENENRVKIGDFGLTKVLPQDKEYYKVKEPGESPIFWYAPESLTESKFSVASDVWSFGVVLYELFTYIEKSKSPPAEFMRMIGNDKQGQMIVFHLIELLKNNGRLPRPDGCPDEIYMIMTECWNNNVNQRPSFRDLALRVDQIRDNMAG

| Sequence | phosphorylation enrichment |
| --- | --- |
| RSAGKYDVYLI [MECP2_Y120] | 0.987 |
| AAALAYGLDKS [HSPA9_Y230] | 1.2 |
| SDQRRYSLIDP [CLIP2_Y972_R977P] | 0.587 |
| CHSDDYVHISI [TSC1_Y406_L411I] | 1.07 |
| LARNMYDKEFF [MET_Y1230_D1228N_YF] | 1 |
| SRFQFYFQQKG [CHKB_Y381] | 1.47 |
| AAVNGYAFGGG [ECHS1_Y137] | 0.521 |
| SEELHYYVQNH [UQCRC2_Y207_F208Y] | 1.68 |
| SVTCAYSPALN [TP53_Y126_T125A] | 0.98 |
| TLSGIYQYSIA [FOXL2_Y81_I84S] | 0.65 |
| CTTIHYNYKCN [TP53_Y234_M237K] | 0.62 |
| TDLAYYLVREG [ASL_Y376_K380E] | 3.04 |
| RGFRQDAFDGK [HLA-A_Y140_YF] | 0.461 |
| DSMQSYDLDYP [UNC13B_Y243] | 1.45 |
| GTYVIYVRFSG [FLNB_Y1687_G1691S] | 1.31 |
| VSTKVYKRFPS [BEST1_Y148_A146K] | 0.47 |
| KKHIPCREHKS [CSNK1G2_Y206_Y206C] | 3.46 |

| Sequence | phosphorylation enrichment |
| --- | --- |
| QKFMAYLSQGW [HLCS_Y236_G241W] | 1.75 |
| HSYNSYTYPRL [PAK5_Y316] | 0.716 |
| YGSSSYGGAGG [RPA2_Y14] | 0.476 |
| DEDFLYREELA [POR_Y575_YF] | 1.15 |
| SEKIVYGHLDD [ACO2_Y71] | 0.815 |
| MPVDGYISGLL [PAK6_Y81] | 0.817 |
| REGAKYVSHCA [ASS1_Y113_G117C] | 0.652 |
| CDKEFYSVHNK [MET_Y1235_Y1230C_YF] | 0.68 |
| IFHLSYHHNCE [PDE6B_Y227_L228H_YF] | 0.831 |
| LPQDGYRIVQH [PTPRT_Y1329_R1324L] | 0.575 |
| LYYYSYLLKNH [PTEN_Y180_V175L] | 2.46 |
| YPSLPYSPVSS [CAMKK2_Y128_C123Y] | 0.489 |
| YDRREYSRFEK [ITGB7_Y758] | 0.925 |
| CGSLLYGLVHQ [PRKCG_Y122] | 0.673 |
| VECQVYAEDPY [PCCA_Y401_R399Q] | 1.28 |
| HRNNNYEPNLF [BRCA2_Y57_K53R] | 1.06 |

Biological target: MERTK (UniProt Q12866)
Assay: as above

Chain of MERTK (Q12866 whole entry, looked up): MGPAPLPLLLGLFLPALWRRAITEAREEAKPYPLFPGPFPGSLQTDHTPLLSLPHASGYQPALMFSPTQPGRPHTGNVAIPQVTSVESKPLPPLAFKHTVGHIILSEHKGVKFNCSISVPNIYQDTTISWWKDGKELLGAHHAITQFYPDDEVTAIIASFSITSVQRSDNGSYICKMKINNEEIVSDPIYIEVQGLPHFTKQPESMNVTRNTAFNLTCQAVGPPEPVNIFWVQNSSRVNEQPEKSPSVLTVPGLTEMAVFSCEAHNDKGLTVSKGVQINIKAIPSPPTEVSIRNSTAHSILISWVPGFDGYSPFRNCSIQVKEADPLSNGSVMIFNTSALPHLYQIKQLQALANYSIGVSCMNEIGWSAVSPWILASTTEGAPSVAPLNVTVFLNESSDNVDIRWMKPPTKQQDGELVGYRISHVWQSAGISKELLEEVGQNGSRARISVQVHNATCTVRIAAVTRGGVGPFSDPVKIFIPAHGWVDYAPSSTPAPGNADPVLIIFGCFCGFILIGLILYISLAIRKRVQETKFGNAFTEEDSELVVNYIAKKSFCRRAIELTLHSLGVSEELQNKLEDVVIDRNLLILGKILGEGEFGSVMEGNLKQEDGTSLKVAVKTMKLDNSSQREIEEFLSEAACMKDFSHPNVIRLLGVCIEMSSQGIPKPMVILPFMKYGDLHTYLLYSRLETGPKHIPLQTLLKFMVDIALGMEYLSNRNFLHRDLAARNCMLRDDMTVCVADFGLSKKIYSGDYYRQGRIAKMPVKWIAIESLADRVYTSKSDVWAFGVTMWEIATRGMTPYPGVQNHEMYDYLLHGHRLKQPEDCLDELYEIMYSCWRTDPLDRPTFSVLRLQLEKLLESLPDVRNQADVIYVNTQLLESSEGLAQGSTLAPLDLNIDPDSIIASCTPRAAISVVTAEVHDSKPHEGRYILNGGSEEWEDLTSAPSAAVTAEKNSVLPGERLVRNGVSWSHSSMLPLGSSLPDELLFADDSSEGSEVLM

| Sequence | phosphorylation enrichment |
| --- | --- |
| RSAGKYDVYLI [MECP2_Y120] | 0.412 |
| AAALAYGLDKS [HSPA9_Y230] | 0.398 |
| SDQRRYSLIDP [CLIP2_Y972_R977P] | 1.3 |
| CHSDDYVHISI [TSC1_Y406_L411I] | 0.457 |
| LARNMYDKEFF [MET_Y1230_D1228N_YF] | 0.578 |
| SRFQFYFQQKG [CHKB_Y381] | 0.369 |
| AAVNGYAFGGG [ECHS1_Y137] | 0.324 |
| SEELHYYVQNH [UQCRC2_Y207_F208Y] | 2.86 |
| SVTCAYSPALN [TP53_Y126_T125A] | 0.525 |
| TLSGIYQYSIA [FOXL2_Y81_I84S] | 6.7 |
| CTTIHYNYKCN [TP53_Y234_M237K] | 0.562 |
| TDLAYYLVREG [ASL_Y376_K380E] | 1.34 |
| RGFRQDAFDGK [HLA-A_Y140_YF] | 0.559 |
| DSMQSYDLDYP [UNC13B_Y243] | 0.405 |
| GTYVIYVRFSG [FLNB_Y1687_G1691S] | 0.455 |
| VSTKVYKRFPS [BEST1_Y148_A146K] | 0.365 |
| KKHIPCREHKS [CSNK1G2_Y206_Y206C] | 0.713 |

| Sequence | phosphorylation enrichment |
| --- | --- |
| QKFMAYLSQGW [HLCS_Y236_G241W] | 0.83 |
| HSYNSYTYPRL [PAK5_Y316] | 1.78 |
| YGSSSYGGAGG [RPA2_Y14] | 0.359 |
| DEDFLYREELA [POR_Y575_YF] | 0.489 |
| SEKIVYGHLDD [ACO2_Y71] | 0.359 |
| MPVDGYISGLL [PAK6_Y81] | 0.41 |
| REGAKYVSHCA [ASS1_Y113_G117C] | 0.504 |
| CDKEFYSVHNK [MET_Y1235_Y1230C_YF] | 0.423 |
| IFHLSYHHNCE [PDE6B_Y227_L228H_YF] | 0.381 |
| LPQDGYRIVQH [PTPRT_Y1329_R1324L] | 0.361 |
| LYYYSYLLKNH [PTEN_Y180_V175L] | 4.98 |
| YPSLPYSPVSS [CAMKK2_Y128_C123Y] | 0.514 |
| YDRREYSRFEK [ITGB7_Y758] | 0.512 |
| CGSLLYGLVHQ [PRKCG_Y122] | 7.41 |
| VECQVYAEDPY [PCCA_Y401_R399Q] | 0.466 |
| HRNNNYEPNLF [BRCA2_Y57_K53R] | 0.617 |

Tested on: c-Abl (mouse)
Assay: as above

| Sequence | phosphorylation enrichment |
| --- | --- |
| RSAGKYDVYLI [MECP2_Y120] | 0.587 |
| AAALAYGLDKS [HSPA9_Y230] | 0.499 |
| SDQRRYSLIDP [CLIP2_Y972_R977P] | 0.488 |
| CHSDDYVHISI [TSC1_Y406_L411I] | 0.879 |
| LARNMYDKEFF [MET_Y1230_D1228N_YF] | 0.793 |
| SRFQFYFQQKG [CHKB_Y381] | 0.99 |
| AAVNGYAFGGG [ECHS1_Y137] | 0.548 |
| SEELHYYVQNH [UQCRC2_Y207_F208Y] | 2.09 |
| SVTCAYSPALN [TP53_Y126_T125A] | 0.79 |
| TLSGIYQYSIA [FOXL2_Y81_I84S] | 1.53 |
| CTTIHYNYKCN [TP53_Y234_M237K] | 0.493 |
| TDLAYYLVREG [ASL_Y376_K380E] | 0.579 |
| RGFRQDAFDGK [HLA-A_Y140_YF] | 0.935 |
| DSMQSYDLDYP [UNC13B_Y243] | 0.496 |
| GTYVIYVRFSG [FLNB_Y1687_G1691S] | 0.941 |
| VSTKVYKRFPS [BEST1_Y148_A146K] | 0.505 |
| KKHIPCREHKS [CSNK1G2_Y206_Y206C] | 2.79 |

| Sequence | phosphorylation enrichment |
| --- | --- |
| QKFMAYLSQGW [HLCS_Y236_G241W] | 0.903 |
| HSYNSYTYPRL [PAK5_Y316] | 0.553 |
| YGSSSYGGAGG [RPA2_Y14] | 0.899 |
| DEDFLYREELA [POR_Y575_YF] | 0.763 |
| SEKIVYGHLDD [ACO2_Y71] | 0.793 |
| MPVDGYISGLL [PAK6_Y81] | 0.622 |
| REGAKYVSHCA [ASS1_Y113_G117C] | 0.825 |
| CDKEFYSVHNK [MET_Y1235_Y1230C_YF] | 0.55 |
| IFHLSYHHNCE [PDE6B_Y227_L228H_YF] | 0.588 |
| LPQDGYRIVQH [PTPRT_Y1329_R1324L] | 0.716 |
| LYYYSYLLKNH [PTEN_Y180_V175L] | 1.97 |
| YPSLPYSPVSS [CAMKK2_Y128_C123Y] | 0.564 |
| YDRREYSRFEK [ITGB7_Y758] | 0.96 |
| CGSLLYGLVHQ [PRKCG_Y122] | 0.664 |
| VECQVYAEDPY [PCCA_Y401_R399Q] | 0.981 |
| HRNNNYEPNLF [BRCA2_Y57_K53R] | 0.509 |
